Assay [1] has as its target T1, IL-36R naturally expressed on OVCAR8 cells and on normal human epidermal keratinocytes (NHK cells) (human, UniProt Q9HB29 20-575).
T1 sequence (looked up): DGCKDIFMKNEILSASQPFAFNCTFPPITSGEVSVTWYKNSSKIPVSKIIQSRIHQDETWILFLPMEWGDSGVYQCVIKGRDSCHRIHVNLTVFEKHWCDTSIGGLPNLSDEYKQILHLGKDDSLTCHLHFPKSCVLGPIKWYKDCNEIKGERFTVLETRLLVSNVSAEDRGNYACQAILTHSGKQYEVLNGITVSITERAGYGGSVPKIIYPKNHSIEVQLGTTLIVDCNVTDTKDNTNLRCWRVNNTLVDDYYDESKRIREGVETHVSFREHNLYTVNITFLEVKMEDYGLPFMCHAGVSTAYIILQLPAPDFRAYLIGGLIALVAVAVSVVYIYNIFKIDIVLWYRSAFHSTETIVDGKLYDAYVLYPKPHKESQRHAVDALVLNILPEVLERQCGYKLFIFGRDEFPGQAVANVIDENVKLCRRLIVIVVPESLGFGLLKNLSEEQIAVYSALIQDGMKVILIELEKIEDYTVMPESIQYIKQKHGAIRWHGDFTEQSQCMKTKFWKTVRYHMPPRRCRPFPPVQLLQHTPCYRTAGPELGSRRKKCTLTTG
Put plainly: cell-based or functional assay.

The target in assay [2] is T1, IL-36R naturally expressed on OVCAR8 …. Put plainly: cell-based or functional assay. The source holds these as a separate data set.
Assay [3] addresses T2, human IL-36R overexpressed on 293T-hIL36R-NFκB cells (human, UniProt Q9HB29 20-575).
T2 construct: Entry includes the signal peptide; also called IL1RL2; IL-1Rrp2
T2 sequence: T1 sequence (looked up)
Put plainly: FACS on 293T-hIL36R-NFκB cells, ratio of MFI to background MFI. Here is the method:
After the cells was washed with PBS, the cells were resuspended with 100 μL of PBS and then the fluorescence signal was detected using a flow cytometer (BD, Accuri C6). […] The ratio was the ratio of mean fluorescence intensity (MFI) of the experimental group/the background MFI, and the resulting data were analyzed using GraphPad Prism.
Affinity, binding and blocking assays for humanized antibodies hz72C1-1.1, hz72C1-1.2, hz72C1-1.3, hz72C1-2.1, hz72C1-2.2 and hz72C1-2.3 as well as hz84C4-1.1, hz84C4-1.2, hz84C4-1.3, hz84C4-1.4, hz84C4-1.5, hz84C4-2.1, hz84C4-2.2, hz84C4-2.3, hz84C4-2.4 and hz84C4-2.5 were performed according to the methods of Example 4, Example 5. Example 6, Example 7 and Example 8.

Assay [4] concerns the target T3, Human IL-1Rrp2/IL-1R6 protein, His Tag (ACROBiosystems, IL2-H52H6) (human, UniProt Q9HB29 20-335).
T3 construct: Bought protein; the soluble protein is likely only the extracellular part; also called hIL-36R; human IL36R antigen; not shown: His tag
T3 sequence: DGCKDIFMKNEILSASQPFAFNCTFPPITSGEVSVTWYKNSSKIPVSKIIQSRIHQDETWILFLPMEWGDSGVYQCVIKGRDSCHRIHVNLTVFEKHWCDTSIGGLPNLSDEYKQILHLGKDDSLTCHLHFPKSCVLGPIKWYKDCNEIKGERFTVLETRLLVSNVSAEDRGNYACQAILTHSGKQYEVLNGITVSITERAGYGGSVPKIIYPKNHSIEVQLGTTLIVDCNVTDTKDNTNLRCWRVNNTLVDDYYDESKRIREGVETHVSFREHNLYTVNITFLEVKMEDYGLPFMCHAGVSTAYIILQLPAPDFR
Put plainly: ELISA, plate coated with human IL-1Rrp2/IL-1R6 His Tag, HRP-protein A/G, OD450. How it is done:
(§1) The binding activity of anti-IL-36R antibodies to IL-36R was analyzed by ELISA using human IL-1Rrp2/IL-1R6 protein, His Tag (ACROBiosystems, IL2-H52H6) and CynoIL36R-ECD mFc (for detection of chimeric and humanized antibodies), and hIL36R-ECD hFc and CynoIL36R-ECD hFc protein (for detection of hybridoma antibodies) as antigens. A 96-well plate (Costar, 9018) was coated with 2 μg/mL antigen at 100 μL/well and incubated overnight at 4° C. After the 96-well plate was washed with a washing buffer (PBS containing 0.05% v/v Tween 20), a blocking buffer (PBS containing 2% bovine serum albumin) was added for blocking at 37° C. for 2 h. After the 96-well plate was washed with the washing buffer, 100 μL of the gradient diluted anti-IL-36R antibody of the present disclosure or the reference antibody BI655130 (the initial concentration of the antibody was 66 nM, 4-fold gradient dilution) was added to each well, and the plate was incubated at room temperature for 1 h. After the 96-well plate was washed with the washing buffer, 100 μL of horseradish peroxidase-conjugated recombinant protein A/G (TheroScientific, 32490) was added to each well, and the plate was incubated at room temperature for 1 h. After the 96-well plate was washed with the washing buffer, 100 μL of a TMB solution (Thermo, 00-4201-56) was added to each well, and the plate was incubated at room temperature for 2 min. Finally, 100 μL of a stop solution (2 N H₂SO₄) was added to each well to stop the reaction. Absorbance was read at 450 nm using a microplate reader (PE, Envision), the resulting data was analyzed using GraphPad Prism, and EC₅₀ was calculated. Binding EC₅₀ of the chimeric anti-IL-36R antibodies to hIL-36R in an ELISA assay is shown in FIG. 1. and binding EC₅₀ of the chimeric anti-IL-36R antibodies to CynoIL-36R in an ELISA assay is shown in FIG. 2. The binding of BI655130 is shown as a control, and the binding of IgG4 is shown as a negative control.
(ELISA stands for enzyme-linked immunosorbent assay.)

In assay [5] the target is T3, Human IL-1Rrp2/IL-1R6 protein, His Tag …. The assay is described as above. Here is the method:
as §1
This is another data set of the same source.

We go through one molecule from patent publication US20240270857A1 (CHIA TAI TIANQING PHARMACEUTICAL GROUP, published 2024).

Like-named read-outs stand apart in the source and are kept apart here.

B1: BI655130 (antibody, human IgG1, kappa, L234A L235A)
heavy: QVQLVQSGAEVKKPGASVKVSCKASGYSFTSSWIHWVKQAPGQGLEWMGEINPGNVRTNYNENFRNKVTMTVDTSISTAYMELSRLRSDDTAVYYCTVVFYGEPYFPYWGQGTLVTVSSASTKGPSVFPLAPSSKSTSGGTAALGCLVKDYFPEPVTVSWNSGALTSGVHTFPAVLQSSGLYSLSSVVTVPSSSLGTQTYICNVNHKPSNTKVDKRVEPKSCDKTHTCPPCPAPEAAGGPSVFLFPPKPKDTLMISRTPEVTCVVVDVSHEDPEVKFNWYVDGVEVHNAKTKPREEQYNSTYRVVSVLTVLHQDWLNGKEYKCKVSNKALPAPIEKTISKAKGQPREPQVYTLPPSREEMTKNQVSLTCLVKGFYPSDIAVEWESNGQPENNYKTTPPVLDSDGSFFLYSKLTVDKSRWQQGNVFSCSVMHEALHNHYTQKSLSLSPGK
light: QIVLTQSPGTLSLSPGERATMTCTASSSVSSSYFHWYQQKPGQAPRLWIYRTSRLASGVPDRFSGSGSGTDFTLTISRLEPEDAATYYCHQFHRSPLTFGAGTKLEIKRTVAAPSVFIFPPSDEQLKSGTASVVCLLNNFYPREAKVQWKVDNALQSGNSQESVTEQDSKDSTYSLSSTLTLSKADYEKHKVYACEVTHQGLSSPVTKSFNRGEC
notes: also called Spesolimab
In general, EC50 refers to the midpoint of the concentration-response curve. As to B1, in assay [1], the “IC50 (M); hIL36α; IL-8 production” value stood at 4.34e-11 M, the “IC50 (M); hIL36αβγ; IL-8 production” value turned out to be 4.88e-11 M, the “IC50 (M); hIL36β; IL-8 production” value came to 1.57e-11 M and the “IC50 (M); hIL36γ; IL-8 production” value came out at 1.42e-11 M. In assay [1], the “Maximum inhibition rate %; hIL36α; IL-8 production” value was 99.8%, the “Maximum inhibition rate %; hIL36αβγ; IL-8 production” value amounted to 99.9%, the “Maximum inhibition rate %; hIL36β; IL-8 production” value was 99.7% and the “Maximum inhibition rate %; hIL36γ; IL-8 production” value came out at 99.7%. Also, in assay [2], the “IC50 (M); hIL36α; IL-8 production” value stood at 6.33e-11 M, the “IC50 (M); hIL36αβγ; IL-8 production” value turned out to be 7.27e-11 M, the “IC50 (M); hIL36β; IL-8 production” value came out at 3.29e-11 M and the “IC50 (M); hIL36γ; IL-8 production” value was 2.63e-11 M. For the same molecule, in assay [2], the “Maximum inhibition rate %; hIL36α; IL-8 production” value is 101%, the “Maximum inhibition rate %; hIL36αβγ; IL-8 production” value came to 90.7%, the “Maximum inhibition rate %; hIL36β; IL-8 production” value was 97.1% and the “Maximum inhibition rate %; hIL36γ; IL-8 production” value stood at 107%. The half-maximal effective concentration (EC50) in assay [3] amounted to 5.13 nM. For the same molecule, the EC50 in assay [4] was 0.764 nM. The molecule further gave a concentration giving a half-maximal response (EC50) in assay [5] of 0.348 nM.
